{"source": "the DeepSol protein solubility set", "data": [{"assay": "soluble on expression in E. coli; label from the status in PepcDB or PDB records", "values": [{"sequence": "MLDKLGGIAVQPEALTWLLTPCRFKAELLTRIENAKTSIYIAALYLEDDEAGREILQVLMTAKANNPALDIKVLVDFHRARRGLIGHKGDSGNYLMYRKVMAEAKHPIEIMGVPVKSREFMGVLHLKGFVIDDAVIYSGASLNNIYLQQNDKYRFDRYHVIESAELARSMRAMIQRYIIADPAVTSLTQDAQQEVLPPKTDVRSFKLRLSQAQYEFNETRSGNRVTPLLGLGRKHNLLNKTVIAMVEESKDRLFICTPYFNPPYILVRALAKHLRKGKRIDIVVGDKTANDFYIPPEQDFSTIGALPYLYEQSLRKFAKRQQWAIDNGQLNIHLWKHGINSYHLKGISTDGRKHLITGSNLNPRAWALDLENGILIHDETGSWKAQFEAEQAHILEHTQRLYHYSQVDTLQSYPDPVKKIMNRIRRLKADFLLRRILLEHHHHHH", "soluble on expression in E. coli": "soluble"}, {"sequence": "MLDKQTMVTAHNALPGRTTAMSIDDTHFVNGSSLTAAPQSGQQQILIGMGCFWGAERLFWQLDGVISTSVGYSGGFTPNPTYEEVCSGKTGHTEVVRVIFDPERLPLTELLRAFWERHDPTQGMRQGNDRGTQYRSAIYTFSEDQREIAEASKAAYQALLTAQHRPSITTEILPAGAYYFAETYHQQYLAKNPNGYCGLGGTGVCFPPHSTL", "soluble on expression in E. coli": "not soluble"}, {"sequence": "MLDLNRKLAKLEEEGKKIKVALIGAGHMGNGMVSQMANMKGIEASIVVDINLELAHKAFTDAGIDEEIIDNVTNEKDAEIKLQEGKVLTCNDFLVACKTKSIDVVIDATGGIAIGAEIALNSILNKKHIVMLNAETDCVVGPILKKLADDAGVIFTGSAGDEPGAVMELFDFADAMGFEVRVIGKGKNNKLDLDCNPDTVREEAERKGASPHMIASFKEGTKTMVEMALMCNATGFVPDVRGGHGIEATVNEVPKKYALKSEGGVLDNYGVVDFVNGIAPGVFVVVAHKLKAVNDELKYLSMGDGPNYILYRPYHLCSLETPLSAAMAVLDHKATIVPKAGLVAEVMTIAKKDLKKGEFMDGYGAYTCYGTIEKYDVAKAMNAVPIGLISKKTKVVKDIKKGEVITYDMVEIEKDTTLYHLRQLQEKIFG", "soluble on expression in E. coli": "not soluble"}, {"sequence": "MLDPARSFDIIGDVHGCALTLERLLDALGYKRVAGVWRHPRRQALFLGDIVDRGPRIREALHIVHDMVEAGQAFCIMGNHEYNALGWVTPALPGSGKAYVREHTPRHARLIDETLTQFAQHPGDWHDFVNWFYQLPLFIDAGRFRLVHACWDPRLIEPLRQQYPDGRIDEHFIQASAVSGSFADTVCNRLLRGTDMRLPDGLTLTGGDGLTRAFFRTKFWEEDPKTYGDIVFQPDALPEEVASTPLSHSQKNALLRYDEDQPMLFVGHYWRSGRPAPIRANLACLDYSAVLYGKLVAYRLDDETRIDPHKFVWVDVDRPQANQLEHHHHHH", "soluble on expression in E. coli": "soluble"}, {"sequence": "MLDSYPGHFLPNTEAPTEEEALIALLALGGYDPDNMDGKPLTMESAVEILRKDGSALASLEEETILNLKETYVNSVGLLGKYVPKVYNGDILFFRSTVIPDWFDPISPNTWLNYLDGQIVQHDIDCRHKDLCQPGPLTEIGQVLAKYLQNKKGVSRV", "soluble on expression in E. coli": "not soluble"}, {"sequence": "MLEFDTTQDQLANIKVIGVGGGGNNAVNRMIEHGVQGVDFIAVNTDAQALNLSKAETKMQIGGKLTRGLGAGANPEVGKKAAEESKEQIQEALRGADMVFVTAGMGGGTGTGAAPVVAQVAKELGALTVGVVTRPFTFEGRKRATQAASGIAAFKENVDTLIVIPNDRLLEIVDKNTPMLEAFREADNVLRQGVQGISDLIATPGLINLDFADVKTIMSNRGSALMGIGSGNGENRAAEAAKKAISSPLLETSIDGAQGVIMNITGGANLSLYEVQEAADIVASASDPEVNMIFGSVINEGLKDDIVVTVIATGFDDSIATQPPKPIIRPNVNHTQQQQQPVAQPPKQREVKREMKREEPVVHERHSDSDSDDIDIPAFLRNRRRR", "soluble on expression in E. coli": "not soluble"}, {"sequence": "MLEIDNQTPLESDFLLLEKIANVLAPTQIIELVLVSDETIREINKDLRGCDYATDVLSFPLEAIPHTPLGSVVINAPLAQTNALKLGHSLENEIALLFIHGVLHLLGYDHEKDKGEQRQKESELIKAFNLPLSLIERTQDLEHHHHHH", "soluble on expression in E. coli": "not soluble"}, {"sequence": "MLEIKRYKNRVASRKCRAKFKQLLQHYREVAAAKSSENDRLRLLLKQMCPSLDVDSIIPRTPD", "soluble on expression in E. coli": "soluble"}, {"sequence": "MLEKTLLKIALDLSLSLPKKAHYQRLMLAVNEVMPCDAVALLVLQDDYLVPVAVDGLSPEVLGMRFSPEEHPRLKAILSSRKPIRFDADSSYPDPYDGLLSIDPKRVLDVHDCMGCCLYVEENLVGVLTLDALQVGAFSNVDDITVATLAALAAATIRNANCIAVLEKRNEKALCLTNELVKDAHKAKGDD", "soluble on expression in E. coli": "not soluble"}, {"sequence": "MLERIKSGVIGLDEILGGGFIKNTVNAVVGGMGCGKTIFCMNYLLEGLENGEKCMYASPDLDVDEFLRLAESMHWDFSKYIDNGQLNIMTVVAEDAASFIKMAFEYDRVAVDALSPLVIDVEAGSRKEIGWLLKNLKSKGTALITVEEPLRQNADLLLLLADSVISLRYTGYGGPFSRTLRVLKHRMSWHGDGVYPFYIIEGAGIVIDEKRGEGFELEEEMNLPERAKEKIAEMCKKGTLTLEDISKIKRRIP", "soluble on expression in E. coli": "not soluble"}, {"sequence": "MLETYDWNNKLTYLKNTRDLYYNDDYVSFLVNTVWKITKPVHIVDYGCGYGYLGLVLMPLLPEGSKYTGIDSGETLLAEARELFRLLPYDSEFLEGDATEIELNDKYDIAICHAFLLHMTTPETMLQKMIHSVKKGGKIICFEPHWISNMASYLLDGEKQSEFIQLGVLQKLFESDTQRNGKDGNIGMKIPIYLSELGVKNIECRVSDKVNFLDSNMHHNDKNDLYQSLKEEGIAGDPGDKQQFVERLIARGLTYDNALAQYEAELRFFKALHLHSSLVYAPNMKITFGEIECMAGDPLEHHHHHH", "soluble on expression in E. coli": "soluble"}, {"sequence": "MLFDHLRDEVMRLDAGITQEVLKLYIAFKAETNFVDVVPQKSRLRLSLNMQFHELVDPKGIAKDVTNVGRWGNGDVEIGFSDLAQLPYIMGLIRQAFEKQMESALV", "soluble on expression in E. coli": "not soluble"}, {"sequence": "MLFTVTAPKEVYTVDVGSSVSLECDFDRRECTELEGIRASLQKVENDTSLQSERATLLEEQLPLGKALFHIPSVQVRDSGQYRCLVICGAAWDYKYLTVKVKASYMRIDTRILEVPGTGEVQLTCQARGYPLAEVSWQNVSVPANTSHIRTPEGLYQVTSVLRLKPQPSRNFSCMFWNAHMKELTSAIIDPLSRMEPKVPRT", "soluble on expression in E. coli": "soluble"}, {"sequence": "MLHAKIETLGVDPQNGSVVVLLRTENDKLLPIVIGPLEAHHIVVALQGEKPPRPLTPDLLLSVMEMLQAKLKRVEIVDLRDGTFYARLILEHRGIELEVDARPSDAMALALRAGAPILVAEEVVEKAGVEEANIRPHGAAEA", "soluble on expression in E. coli": "soluble"}, {"sequence": "MLHCLDEFGNLKLKAIIDWQGVSTLPPGLDLSRLLMGCLSAHERRERGLEMLKLYHETFNQVLGKELFSFQELQDSYNLYYPMMAMALLPLVSSLAENSQVSEVEKAQIRFKTETKLVAMMEDLIEVHEYNLKHFPEILKG", "soluble on expression in E. coli": "not soluble"}, {"sequence": "MLIAFEGIDGSGKTTQAKKLYEYLKQKGYFVSLYREPGGTKVGEVLREILLTEELDERTELLLFEASRSKLIEEKIIPDLKRDKVVILDRFVLSTIAYQGYGKGLDVEFIKNLNEFATRGVKPDITLLLDIPVDIALRRLKEKNRFENKEFLEKVRKGFLELAKEEENVVVIDASGEEEEVFKEILRALSGVLRV", "soluble on expression in E. coli": "soluble"}, {"sequence": "MLIFGVIMVTIIVLFHPILTNQRDTIVTSTFKEIASDACYYINLGVKVEDYEHEPLNNLVGNVKCNFLGISVDSTTGEIRVTLKFEVNGNAQDFASGIIEYIKRRITEIRGFTITDKGEIFYRDSKITIEILTLEHHHHHH", "soluble on expression in E. coli": "not soluble"}, {"sequence": "MLIKLTGGTVYDPANGIDGQVRNLFIRDGRIVHSLNGATPDQEYDLRGKVVMAGAIDMHTHIGGGKVTIARNLLPEDHRADPEPRRGLMRAGCGHAAPSTLTTGYRYAEMGYTAGFEPAVLPINARQAHMEMADVPLLDVGGYVMLGSDDFFLRLLSAGSDQKLINDYVAWTIRSAKAIGIKVVNPGGISAFKFNQRMLDLDEKHVYYGVTPRQILKSLARAVHELGVPHPLHVHGCNLGVPGNVETTLNTISGIEGLPMHLTHIQFHSYGVEGDRKFSSGAARIAEAINANKNITIDVGQILFGQTVTASGDSMRQHANAGHAHPDKWVCMDIECDAGCGVVPFKYRDKNFVNALQWCIGLETFLLIDDPWRVFLTTDHPNGAPFTTYPHLIRLLMDKSFRNDMLATINPEAAALSTLGSIDREYSLYEIAIMTRAGAARLLGLTDRGHLGAGAAADITVYTDQADKEKMFTRPDYVFKDGELVVRNGEVVKVVWGNLHTVQPEFDNGIEARLRDYFDRYHTMKLDNFVINDWEIEGDGRSKILVHPCHQGTRSLEHHHHHH", "soluble on expression in E. coli": "not soluble"}]}]}
